Test results published in patent US20190225694A1 (ZAKLADY FARMACEUTYCZNE POLPHARMA, published 2019).

Columns and labels:
[1] = molecular target: T1, integrin α4β1 (coated, direct ELISA) (UniProt P13612 34-970; P05556 21-728, limits assumed); assay: direct ELISA, coated integrin α4β1, anti-human IgG-HRP detection, 4PL fit
T1 construct: Coated on the plate in the direct ELISA; also called α4β1 integrin; VLA-4
Method: The principle of this method is to incubate a coated constant amount of integrin α4β1 with serially diluted natalizumab samples. The amount of bound natalizumab is subsequently determined by a mouse, monoclonal anti-human IgG antibody, which is conjugated to horseradish peroxidase (HRP). HRP converts the chromogenic substrate TMB (3,3′,5,5′-tetramethylbenzidine) into a colored dye. The color reaction is measured spectrophotometrically at wavelength 450 nm.
Data are analyzed applying 4 Parameter Logistic nonlinear regression model (4PL), which is commonly used for curve-fitting analysis in bioassays or immunoassays such as ELISAs or dose-response curves. Final result is expressed as a Relative Potency (REP) of tested sample in relation to interim reference standard established at Polpharma site. The method variability was determined at the level of 7% coefficient variation (CV) of intermediate precision within the qualification exercise.

α4β7 integrin = α4β7 integrin (UniProt P13612 34-970; P26010 20-723); assay: competitive ELISA, coated α4β7 integrin, Fc-tagged MadCAM-1 as competitor, bound antibody detected with anti-human IgG-POD, 4PL fit
Method: Constant amount of the coated α4β7 integrin is incubated with serial dilutions of natalizumab in the presence of Fc-tagged MadCAM-1 receptor. natalizumab and MadCAM-1 receptor now compete for binding to solid-phase associated α4β7 integrin. The higher the natalizumab concentration the more MadCAM-1 is inhibited from binding to α4β7 integrin. The lowest signal result is observed when no natalizumab is present. Bound natalizumab is subsequently detected with a POD-conjugated anti-human IgG antibody and a TMB-substrate reaction at the end of the assay.
(§1) Data are analyzed with 4PL fitting model. Final result is expressed as a Relative Potency (REP) of tested sample in relation to reference standard. The method variability was determined at the level of 8% coefficient variation (CV) of intermediate precision within the qualification exercise. Additionally accuracy, linearity and specificity were tested.

HIS-tagged α4β1 integrin = HIS-tagged α4β1 integrin (UniProt P13612 34-970; P05556 21-728, limits assumed); assay: competitive ELISA, coated VCAM-1 as competitor, HIS-tagged α4β1 integrin in solution, 4PL fit
Method: Constant amount of the coated VCAM-1 protein is incubated with serial dilutions of natalizumab in the presence of HIS-tagged α4β1 integrin. Solid-phase associated VCAM-1 and soluble natalizumab now compete for binding to α4β1 integrin. The higher the natalizumab concentration the more α4β1 Integrin is inhibited from binding to VCAM-1. The highest signal result is observed when no natalizumab is present. Bound HIS-tagged α4β1 integrin is subsequently detected with a biotinylated anti-HIS-tag antibody, POD-conjugated Streptavidin and a TMB-substrate reaction at the end of the assay.
as §1, with “7%” for “8%”

Row | Relative Potency (REP), average [1] | Relative Potency (REP), max [1] | Relative Potency (REP), min [1] | Relative Potency (REP), average (α4β7 integrin) | Relative Potency (REP), max (α4β7 integrin) | Relative Potency (REP), min (α4β7 integrin) | Relative Potency (REP), average (HIS-tagged α4β1 integrin) | Relative Potency (REP), max (HIS-tagged α4β1 integrin) | Relative Potency (REP), min (HIS-tagged α4β1 integrin) | Binder
1 | 0.769 relative to interim reference standard | 0.847 relative to interim reference standard | 0.723 relative to interim reference standard | 0.81 relative to reference standard | 0.857 relative to reference standard | 0.738 relative to reference standard | 0.829 relative to reference standard | 0.842 relative to reference standard | 0.805 relative to reference standard | natalizumab biosimilar antibody produced by CHO DG44 Clone 1 (antibody, human IgG4, kappa, V domains shown, Tested product from the clone selection step; full-length IgG4) VH: QVQLVQSGAEVKKPGASVKVSCKASGFNIKDTYIHWVRQAPGQRLEWMGRIDPANGYTKYDPKFQGRVTITADTSASTAYMELSSLRSEDTAVYYCAREGYYGNYGVYAMDYWGQGTLVTVSS VL: DIQMTQSPSSLSASVGDRVTITCKTSQDINKYMAWYQQTPGKAPRLLIHYTSALQPGIPSRFSGSGSGRDYTFTISSLQPEDIATYYCLQYDNLWTFGQGTKVEIKR
2 |  |  |  | 0.998 relative to reference standard | 1.08 relative to reference standard | 0.922 relative to reference standard | 1.02 relative to reference standard | 1.15 relative to reference standard | 0.935 relative to reference standard | natalizumab reference product (9 batches) (antibody, human IgG4, kappa, V domains shown) VH: QVQLVQSGAEVKKPGASVKVSCKASGFNIKDTYIHWVRQAPGQRLEWMGRIDPANGYTKYDPKFQGRVTITADTSASTAYMELSSLRSEDTAVYYCAREGYYGNYGVYAMDYWGQGTLVTVSS VL: DIQMTQSPSSLSASVGDRVTITCKTSQDINKYMAWYQQTPGKAPRLLIHYTSALQPGIPSRFSGSGSGRDYTFTISSLQPEDIATYYCLQYDNLWTFGQGTKVEIKR
3 | 0.679 relative to interim reference standard | 0.732 relative to interim reference standard | 0.611 relative to interim reference standard | 0.831 relative to reference standard | 0.858 relative to reference standard | 0.79 relative to reference standard | 0.903 relative to reference standard | 0.93 relative to reference standard | 0.85 relative to reference standard | natalizumab biosimilar antibody produced by CHO DG44 Clone 2 (antibody, human IgG4, kappa, V domains shown, Tested product from the clone selection step; full-length IgG4) VH: QVQLVQSGAEVKKPGASVKVSCKASGFNIKDTYIHWVRQAPGQRLEWMGRIDPANGYTKYDPKFQGRVTITADTSASTAYMELSSLRSEDTAVYYCAREGYYGNYGVYAMDYWGQGTLVTVSS VL: DIQMTQSPSSLSASVGDRVTITCKTSQDINKYMAWYQQTPGKAPRLLIHYTSALQPGIPSRFSGSGSGRDYTFTISSLQPEDIATYYCLQYDNLWTFGQGTKVEIKR
